What follows are binders tested against YTHDC1 YTH domain (Homo sapiens, UniProt Q96MU7 345-509) (assay: ITC).

Binder | Kd
GGCGCAUCGGCGCC (structured_RNA, m6A at position 6) [(m6A)UCG Xist tetraloop hairpin] | 3030 ± 530 nM
CCAUCG (ssRNA, m6A at position 3) [CC(m6A)UCG hexamer] | 1270 ± 240 nM
GGCGUAUCGGCGCC (structured_RNA, m6A at position 6) [UG-mismatch (m6A)UCG Xist hairpin] | 2050 ± 100 nM

From article PMC8887474
